Reference: PMC8103094, “Androgen receptor (AR) antagonism triggers acute succinate‐mediated adaptive responses to reactivate AR signaling”

B1: SDHB ARE probe (dsDNA)
DNA 1: AGAGCTCCCTGTACTTTCCCAACA
DNA 2: TGTTGGGAAAGTACAGGGAGCTCT
B2: SDHA ARE probe (dsDNA)
DNA 1: GCGACTTGTGCTGGCTGAGGGA
DNA 2: TCCCTCAGCCAGCACAAGTCGC

Molecular target: Androgen receptor DNA-binding domain (AR-DBD) (UniProt P10275 560-632)
Experiment: EMSA; Odyssey infrared EMSA kit (LI-COR): 2.5 mM DTT/0.25% Tween 20, poly(dI.dC), room temperature 30 min, increasing protein; 6% TBE native gel; salt and pH not stated
Details: protein: recombinant; chain copies: 2; label: 5' IRDye700 on both strands; blunt

Chain of Androgen receptor DNA-binding domain (AR-DBD) (P10275 560-632): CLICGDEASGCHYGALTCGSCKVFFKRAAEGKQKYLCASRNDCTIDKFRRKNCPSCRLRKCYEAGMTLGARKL

Binder	binding result
B1	binds
B2	binds
